Data from patent publication US20170137511A1 (CALYPSO BIOTECH, published 2017).
Where a chain is given by its changes, count along the chain named. One block for each binder: values may come before it.

Legend:
[1] = target: T1, human IL-15 (preparation not stated) (human, UniProt P40933 49-162, limits assumed); experiment: ELISA screen of hybridoma supernatants
T1 construct: also called recombinant IL-15; recombinant human IL-15

[2] = target: T2, recombinant Macaque Monkey IL-15 (MyBiosource cat. no. MBS948894) (Rhesus macaque / Cynomolgus monkey, UniProt P40221 49-162 (Chlorocebus aethiops entry)); experiment: ELISA, plate-bound Macaque Monkey IL-15; printed as BC50 (half-maximal binding concentration)
T2 construct: Produced in yeast; also called Rhesus macaque IL-15; recombinant monkey IL-15; not shown: additional N-terminal His tag

[3] = target: T3, recombinant human IL-15 (Prospec cat no. CYT230) (human, UniProt P40933 49-162); experiment: SPR (Biacore 3000), human IL-15 amine-coupled to the chip, antibody injected, 1:1 Langmuir fit
Protocol: Human IL-15 (Prospec cat no. CYT230) was immobilized onto a CMS chip (GE Healthcare) using standard amine coupling, and antibodies injected at various concentrations in 120 μl phosphate buffer saline with a flow rate of […]. Binding kinetics were analyzed on a Biacore 3000 apparatus (GE Healthcare) with a 300 seconds dissociation period. Reference signal and 0 nM antibody concentration signal were substracted and data fitted using a 1:1 (Langmuir) binding model.

[4] = target: recombinant human IL-2 (R&D Systems cat. no. 202-IL-010) (human, UniProt P60568 21-153); experiment: ELISA, plate-bound recombinant human IL-2 (100 ng/well), HRP goat anti-human IgG, absorbance at 450 nm
Protocol: Maxisorp plates were coated with recombinant human IL-2 (R&D Systems cat. no. 202-IL-010) of SEQ ID NO: 38 at 100 ng/well in carbonate coating buffer for 2 hours at 37° C. The plate was then blocked with 2% normal goat serum for 30 min at 37° C. and washed 4 times with PBS-Tween (0.05% Tween-20 in PBS, v/v). Test antibodies or positive control biotinylated antibody (anti-IL-2 Novus Bio cat. no. NBP1-43491) were added to the plate in duplicate at 5 μg/ml in PBS-Tween and the plate was incubated with gentle rocking at room temperature for 2 hours. The plate was then washed 4 times with PBS-Tween and an appropriate dilution of goat anti-human IgG antibody (Millipore cat. no. AP309P) conjugated to horseradish peroxidase (HRP) for test antibodies, or streptavidin-HRP for positive control antibody, was added to the plate and left rocking at room temperature for 1 hour. The plate was then washed 4 times with PBS-Tween and incubated with TMB (3,3′,5,5′-tetramethylbenzidine) substrate. The reaction was stopped by the addition of 1 M H₂SO₄ and read at 450 nm.

[5] = target: T4, recombinant rat IL-15 (Sigma cat. no. SRP4172) (rat, UniProt P97604 49-162); experiment: ELISA, plate-bound recombinant rat IL-15 (100 ng/well), HRP goat anti-human IgG, absorbance at 450 nm
T4 sequence: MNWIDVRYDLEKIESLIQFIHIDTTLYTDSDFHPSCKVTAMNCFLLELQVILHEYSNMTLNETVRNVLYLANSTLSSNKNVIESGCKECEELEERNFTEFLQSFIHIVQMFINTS
Protocol: (§1) Maxisorp plates were coated with recombinant mouse IL-15 (R&D Systems cat. no. 447-ML) or rat IL-15 (Sigma cat. no. SRP4172) at 100 ng/well in carbonate coating buffer for 2 hours at 37° C. Tested IL-15 recombinant proteins have a sequence identical to that provided in SEQ ID NO: 2 (mouse IL-15) and SEQ ID NO: 3 (rat IL-15) but with an additional methionine at the N-terminal position as usually done for expressing recombinant proteins in E. Coli.
(§2) The plate was then blocked with 2% normal goat serum for 30 min at 37° C. and washed 6 times with PBS-Tween (0.05% Tween-20 in PBS, v/v). Test antibodies were added to the plate in triplicate at various dilutions in PBS-Tween and the plate was incubated with gentle rocking at room temperature for 2 hours. As positive controls, rabbit-anti-mouse IL-15 (Acris cat. no. AP01124PU-S) or rabbit anti-rat IL-15 (Biovision cat. no. 5172) antibodies were tested at the same concentrations. The plate was then washed 6 times with PBS-Tween and an appropriate dilution of HRP-conjugated goat anti-human IgG antibody (Millipore cat. no. AP309P) for humanized antibodies, or goat-anti-rabbit IgG antibody (Sigma cat. no. A 4416) for the positive controls was added and the plate was left rocking at room temperature for 1 hour. The plate was then washed 6 times with PBS-Tween and incubated with TMB substrate. The reaction was stopped by the addition of 1M H₂SO₄ and read at 450 nm. Dose response curves of absorbance versus concentration were plotted using the Graphpad Prism software.

[6] = target: T5, recombinant human IL-15 (R&D systems cat. no. 247-IL) (human, UniProt P40933 49-162); experiment: cell-based or functional assay
[7] = target: T1, human IL-15 (preparation not stated); experiment: cell-based or functional assay
[8] = target: T3, recombinant human IL-15 (Prospec cat …); experiment: ELISA, plate-bound human IL-15; printed as BC50 (half-maximal binding concentration)
[9] = target: T6, recombinant mouse IL-15 (R&D Systems cat. no. 447-ML) (mouse, UniProt P48346 49-162); experiment: ELISA, plate-bound recombinant mouse IL-15 (100 ng/well), HRP goat anti-human IgG, absorbance at 450 nm
T6 sequence: T4 sequence with F19S, I82A, R95K, N96T, H106R
Protocol: as §1, §2

[10] = target: T2, recombinant Macaque Monkey IL-15 …; experiment: cell-based or functional assay
[11] = target: T5, recombinant human IL-15 (R&D systems …); experiment: cell-based or functional assay; remark: listed apart in the source

T5 sequence (P40933 49-162 limits assumed): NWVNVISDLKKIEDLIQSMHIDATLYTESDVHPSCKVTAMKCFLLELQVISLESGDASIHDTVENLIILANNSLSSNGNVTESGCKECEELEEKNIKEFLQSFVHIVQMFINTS
T3 sequence (P40933 other isoform, or with tags, fused parts or gaps): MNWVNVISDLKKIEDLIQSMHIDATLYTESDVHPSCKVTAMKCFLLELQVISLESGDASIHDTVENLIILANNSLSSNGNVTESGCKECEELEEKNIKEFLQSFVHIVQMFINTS
T2 sequence (P40221 49-162): as the sequence (P40933 49-162 limits assumed) above, with L52H, A57T, S58D, S73I, V80I counted along it
T1 sequence (P40933 49-162 limits assumed): as the sequence (P40933 49-162 limits assumed) above
Sequence of recombinant human IL-2 (R&D Systems cat. no. 202-IL-010) (P60568 21-153 limits assumed): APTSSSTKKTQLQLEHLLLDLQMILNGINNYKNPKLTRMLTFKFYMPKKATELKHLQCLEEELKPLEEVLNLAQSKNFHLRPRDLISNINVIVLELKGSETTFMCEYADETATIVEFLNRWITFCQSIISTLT

binding result [1]: binds
B1: mouse anti-IL-15 monoclonal antibody B-E29 (antibody, V domains shown)
VH: EVRLMASGGGLVKPGGSLKLSCAASEFTFSNYAMSWVRQTPEKRLEWVATISRGGDYTYYPDSVKGRFTISRDNAKNTLYLQMSSLRSEDTALYYCARRVSMITGGWAMDYWGQGTSVTVSS
VL: DVLMTQTPLSLPVSLGDQASISCRSSQSIVDITGNTYLEWYLQKPGQSPKLLIYKVFNRFSGVPDRFSGSGSGTDFTLKISRVEAEDLGLYYCFQDSFVPYTFGGGTKLEIK
notes: Mouse IgG1 (heavy chain) kappa (light chain); also called mouse B-E29; comparative antibody 1

EC50 [2]: 0.34 nM
Kd [3]: 0.0094 nM
koff [3]: 1.07e-05 s⁻¹
kon [3]: 1.15e+06 M⁻¹ s⁻¹
binding result [4]: no binding (tested: 5 µg/ml)
IC50 in M07e cells for IL-15 trans presentation [6]: 0.37 nM
half-maximal inhibitory concentration (IC50) of IL-15-induced prevention of apoptosis, type II RCD primary IEL cell line HAM RAC [7]: 2.36 nM
EC50 [8]: 1.47 nM
IC50 in Kit 225 cells (nM), Macaque Monkey IL-15 [10]: 0.112 nM
IC50 in M-07e cells (nM), Macaque Monkey IL-15 [10]: 0.23 nM
IC50 in Kit 225 cells (nM), Human IL-15 [11]: 0.083 nM
IC50 in M-07e cells (nM), Human IL-15 [11]: 0.017 nM
B2: huB-E29-2 (antibody, human IgG1, kappa)
heavy: not shown
light: DVVMTQSPLSLPVTLGQPASISCRSSQSIVDITGNTYLEWYQQRPGQSPRLLIYKVFNRFSGVPDRFSGSGSGTDFTLKISRVEAEDVGVYYCFQDSFVPYTFGQGTKLEIKRTVAAPSVFIFPPSDEQLKSGTASVVCLLNNFYPREAKVQWKVDNALQSGNSQESVTEQDSKDSTYSLSSTLTLSKADYEKHKVYACEVTHQGLSSPVTKSFNRGEC
notes: Humanized B-E29 variant; human IgG1 (G1m3) / kappa (Km3), produced in CHO cells; also called huVH2/huVL1
binding result [5]: no binding (tested: log 3.7 (about 5000 ng/mL))
binding result [9]: no binding (tested: log 3.7 (about 5000 ng/mL))
